The text below walks through data of the supplement of paper PMC9170038.

Series [1] deals with MS2 coat protein. The experiment in a line: apparent KD of MS2 coat protein, switch ON state; designed switch direction (-1 OFF switch, 1 ON switch): -1; higher = weaker reporter binding. The note with it: FMN input: 0 or 200 uM; Eterna round: R93 (includes R88 designs). The gist of the method:
(§1)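 Designed RNA switches were transcribed on-chip from Illumina sequencing clusters. SNAP-549-labelled MS2 coat protein was titrated onto them in twofold steps from 0.7 or 1.5 nM to 3 µM in 100 mM Tris-HCl pH 7.5, 80 mM KCl, 4 mM MgCl2, either without or with constant ligand. Apparent KD reflects the per-design median of normalised cluster binding-curve fits.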

Series [2] deals with MS2 coat protein. In words: apparent KD of MS2 coat protein, switch OFF state (with FMN for OFF switches, without FMN for ON switches); designed switch direction (-1 OFF switch, 1 ON switch): -1; higher = weaker reporter binding. The note with it: FMN input: 0 or 200 uM; Eterna round: R93 (includes R88 designs). The method, boiled down: as §1

With “AAAUAGUUAGGAUAUACAUGAGGAUCACCCAUGUGCACUUAUGGAGAAUAGGGUAAUGGUAGAAGGGACUAAAA [EX2 Malc#21]”, the “apparent KD of MS2 coat protein” value with MS2 coat protein [1] stood at 0.0362 µM; in the series on MS2 coat protein [2], 0.0397 µM.

In the case of “AAAUUGUCAGGAUAUCCUAUAACUCUAAAAUAGAGGAGAUAGGAGAAGGGACAUGAGGAUCACCCAUGUAAAAC [May 86]”, the “apparent KD of MS2 coat protein” value in the series with MS2 coat protein [1] is 0.0437 µM; in the series with MS2 coat protein [2], 0.0617 µM.

“AAAUUGUCAGGAUAUCCUAUAAUAAUAAAAUAGAGGAAAUAGGAGAAGGGACAUGAGGAUCACCCAUGUAAAAC [May 84]”: the “apparent KD of MS2 coat protein” value turned out to be 0.0492 µM with MS2 coat protein [1] and 0.037 µM in the series with MS2 coat protein [2].

Regarding “AAAUUGUCAGGAUAUCGUAGAACAGGGAAAACCUGGAGCUACGAGAAGGGACAUGAGGAUCACCCAUGUAAAAC [May 93]”, the figures for the “apparent KD of MS2 coat protein” value in the series on MS2 coat protein [1] and in the series with MS2 coat protein [2] were 0.0627 µM and 0.0711 µM, respectively.

As to “AAAUUGUCAGGAUAUCUUAGAACUCUAAAAUAGAGGAGCUAAGAGAAGGGACAUGAGGAUCACCCAUGUAAAAC [May 89]”, the “apparent KD of MS2 coat protein” value in the series with MS2 coat protein [1] was 0.0865 µM; in the series with MS2 coat protein [2], 0.071 µM.

“AACAAGACAGGAUAUACAUGAGGAUCACCCAUGUGAGAAUAAAGUGGCGUAACACAAAGUAGAAGGGUCAUGGA [Ruby 6]”: the “apparent KD of MS2 coat protein” value was found to be 0.0326 µM with MS2 coat protein [1] and 0.0555 µM with MS2 coat protein [2].

As to “AACAAGUCAGGAUAUCAUACUAAUCACUUGCUUUAAAUGUAUGAGAAGGGACAUGAGGAUCACCCAUGUAAAGA [Exclusion4-cac3]”, the “apparent KD of MS2 coat protein” value with MS2 coat protein [1] came out at 0.0468 µM; in the series on MS2 coat protein [2], 0.0341 µM.

For the sequence “AACAAGUGAGGAUAUUGGAAAAGUAAAUAAGUAAAACAAAACAAGAAGGCACAUGAGGAUCACCCAUGUAAAUA [JR_Exc004_Sub017]”, the figures for the “apparent KD of MS2 coat protein” value in the series with MS2 coat protein [1] and with MS2 coat protein [2] were 0.0219 µM and 0.0179 µM, respectively.

In the case of “AACACACAUGAGGAUCACCCAUGUCAGGAUAUGCCGGGUUAGAGCCAACUGAAAAACCGUAGAAGGGACGAAAA [Bilbo Confounded 9 - Jieux - Exclusion 1]”, the figures for the “apparent KD of MS2 coat protein” value in the series with MS2 coat protein [1] and in the series on MS2 coat protein [2] were 0.0669 µM and 0.0616 µM, respectively.

Turning to “AACAGACAUGAGGAUCACCCAUGUGAGGAUAUGGCAAUCGAUAGAACUAGAAUGACAACCAGAAGGCACAGCAA [JR_Exc001_Sub004]”, the “apparent KD of MS2 coat protein” value with MS2 coat protein [1] is 0.0776 µM; with MS2 coat protein [2] it was 0.0863 µM.

As for “AACAGGACAGGAUAUACAUGAGGAUCACCCAUGUAGGAAUUAAGCAGAGUACCACACAGUAGAAGGGUCAUGGA [Ruby 26]”, the “apparent KD of MS2 coat protein” value turned out to be 0.0276 µM in the series with MS2 coat protein [1] and 0.0304 µM in the series on MS2 coat protein [2].

As to “AACAGGACAGGAUAUACAUGAGGAUCACCCAUGUCACAACAAAGCAGCGCAACACAAAGUAGAAGGGUCAUGGA [Ruby 13]”, the “apparent KD of MS2 coat protein” value in the series on MS2 coat protein [1] turned out to be 0.0758 µM; in the series on MS2 coat protein [2], 0.0591 µM.

For the sequence “AACAGGUCAGGAUAUGUGGAAAAAAUAAAAAAAAUAAAAACACAGAAGGGACAUGAGGAUCACCCAUGUAAACA [May 23]”, the results for the “apparent KD of MS2 coat protein” value in the series with MS2 coat protein [1] and with MS2 coat protein [2] were 0.0472 µM and 0.0604 µM, respectively.

Take “AACAGGUUAGGAUAUAUCCAACAAAUAAAAAAAAUAUAAGGAUAGAAGGAACAUGAGGAUCACCCAUGUUAACA [May 30]”: the “apparent KD of MS2 coat protein” value was determined as 0.0208 µM with MS2 coat protein [1] and 0.0171 µM in the series with MS2 coat protein [2].

As to “AACAGUACAGGAUAUACAUGAGGAUCACCCAUGUAAAAAGGGAGUGGCGUACCACAAAGUAGAAGGGUACUGGA [Moding Maslow revisited (73) 7]”, the “apparent KD of MS2 coat protein” value in the series on MS2 coat protein [1] came to 0.0369 µM; with MS2 coat protein [2] it was 0.172 µM.

In the case of “AACAGUACAGGAUAUACAUGAGGAUCACCCAUGUAAAAAUAAUAAAAGGGAAAAACUCGUAGAAGGGUACUGGA [Moding Maslow revisited (73) 16]”, the entries for the “apparent KD of MS2 coat protein” value with MS2 coat protein [1] and with MS2 coat protein [2] were 0.0632 µM and 0.104 µM, respectively.

For the sequence “AACAGUACAGGAUAUACAUGAGGAUCACCCAUGUAAAAGGGAAGUGGCGUACCACAAAGUAGAAGGGUACUGGA [Moding Maslow revisited (73) 6]”, the “apparent KD of MS2 coat protein” value came to 0.0376 µM with MS2 coat protein [1] and 0.121 µM in the series with MS2 coat protein [2].

With “AACAGUACAGGAUAUACAUGAGGAUCACCCAUGUGAAAAUUAAGUGGAAAACCACAAAGUAGAAGGGUACUGAA [Mat - Exclusion 3 - Eli mod - D58]”, the results for the “apparent KD of MS2 coat protein” value in the series with MS2 coat protein [1] and in the series on MS2 coat protein [2] were 0.0214 µM and 0.0617 µM, respectively.

“AACAGUACAGGAUAUACAUGAGGAUCACCCAUGUGAAAAUUAAGUGGCGUACCACAAGGUAGAAGGGUACUGGA [Moding Maslow Revisited (73) 27]”: the figures for the “apparent KD of MS2 coat protein” value in the series with MS2 coat protein [1] and in the series on MS2 coat protein [2] were 0.0327 µM and 0.129 µM, respectively.

For the sequence “AACAGUACAGGAUAUACAUGAGGAUCACCCAUGUGAAAAUUAAGUGGCGUACCACAAUGUAGAAGGGUACUGAA [Mat - Exclusion 3 - Eli mod - D46]”, the “apparent KD of MS2 coat protein” value was found to be 0.103 µM with MS2 coat protein [1] and 0.232 µM in the series with MS2 coat protein [2].
